These results are taken from US20050148035A1 (Genentech, published 2005).

The target in experiment [1] is T1, native-sequence human IGFBP-3 (human, UniProt P17936 28-291).
T1 construct: also called wild-type IGFBP-3; full-length IGFBP-3
Description: BIAcore competition: bp15 (15 nM to 100 µM) pre-incubated 1 h with 20 nM IGFBP-3, injected over immobilised biotinylated IGF-II (bIGF-II, triangles); blocked ligand IGF-II; one-site competition fit. (Surface plasmon resonance follows binding to a sensor surface in real time, without labels.)

For experiment [2], the target named is T2, miniBP-3 fusion protein (human).
T2 construct: Uncleaved fusion, made in E. coli BL21 from pET21a and purified on IgG Sepharose
The experiment can be described thus: BIAcore competition, bp15 preincubated with miniBP-3 fusion, injected over immobilised biotinylated IGF-I.

For experiment [3], the target named is T1, native-sequence human IGFBP-3. The experiment can be described thus: BIAcore competition: bp15 (15 nM to 100 µM) pre-incubated 1 h with 20 nM IGFBP-3, injected over immobilised biotinylated IGF-I (bIGF-I, squares); blocked ligand IGF-I; one-site competition fit.

B1: peptide bp15 (peptide)
peptide: SEEVCWPVAEWYLCN
notes: Identified by phage display (Lowman et al. 1998); also called bp15 peptide
B1: the IC50 in experiment [1] is 147 nM; in experiment [3] it was 105 nM. Further, the binding result in experiment [2] is on record as “binds”.

Usually IC50 stands for the concentration that gives 50% inhibition. Read a low IC50 as greater potency in that assay.
